Source: US20200392228A1 (PANDION OPERATIONS, published 2020)
Positions count from the first letter of the chain named. Blank lines part the entries; values can stand above or below the binder they belong to.

How the values were obtained:
[1] = biological target: T1, mouse MAdCAM expressed on cells (mouse, UniProt Q61826 22-405); assay: cell binding
T1 construct: whole, on cells
T1 sequence (looked up): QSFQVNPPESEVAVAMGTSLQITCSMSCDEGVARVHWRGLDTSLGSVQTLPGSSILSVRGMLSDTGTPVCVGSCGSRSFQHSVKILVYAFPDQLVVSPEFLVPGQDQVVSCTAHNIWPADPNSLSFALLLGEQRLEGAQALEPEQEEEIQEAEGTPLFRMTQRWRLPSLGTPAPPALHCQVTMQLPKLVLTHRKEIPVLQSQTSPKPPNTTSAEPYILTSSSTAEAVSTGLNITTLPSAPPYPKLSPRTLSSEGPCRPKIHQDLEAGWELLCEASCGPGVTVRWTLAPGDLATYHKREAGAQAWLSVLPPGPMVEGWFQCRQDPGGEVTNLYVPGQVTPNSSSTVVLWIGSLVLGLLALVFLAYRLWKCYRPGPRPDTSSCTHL

mouse MAdCAM protein = biological target: T2, mouse MAdCAM protein (mouse, UniProt Q61826 22-365, limits assumed); assay: Octet
T2 construct: also called recombinant mouse MAdCAM-1; mMAdCAM-1
T2 sequence (looked up): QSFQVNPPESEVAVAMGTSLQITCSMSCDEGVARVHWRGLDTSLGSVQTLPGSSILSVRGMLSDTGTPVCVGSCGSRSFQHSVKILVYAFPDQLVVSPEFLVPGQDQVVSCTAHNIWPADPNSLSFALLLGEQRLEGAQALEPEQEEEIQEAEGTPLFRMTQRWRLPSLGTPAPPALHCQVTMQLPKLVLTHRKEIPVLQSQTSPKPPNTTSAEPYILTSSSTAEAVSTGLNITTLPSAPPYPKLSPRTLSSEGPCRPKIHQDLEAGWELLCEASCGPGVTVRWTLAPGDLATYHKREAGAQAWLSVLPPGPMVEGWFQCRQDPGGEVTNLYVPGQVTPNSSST

[2] = biological target: T3, human MAdCAM expressed on cells (human, UniProt Q13477 19-382); assay: cell binding
T3 construct: whole, on cells; also called MADCAM1
T3 sequence (looked up): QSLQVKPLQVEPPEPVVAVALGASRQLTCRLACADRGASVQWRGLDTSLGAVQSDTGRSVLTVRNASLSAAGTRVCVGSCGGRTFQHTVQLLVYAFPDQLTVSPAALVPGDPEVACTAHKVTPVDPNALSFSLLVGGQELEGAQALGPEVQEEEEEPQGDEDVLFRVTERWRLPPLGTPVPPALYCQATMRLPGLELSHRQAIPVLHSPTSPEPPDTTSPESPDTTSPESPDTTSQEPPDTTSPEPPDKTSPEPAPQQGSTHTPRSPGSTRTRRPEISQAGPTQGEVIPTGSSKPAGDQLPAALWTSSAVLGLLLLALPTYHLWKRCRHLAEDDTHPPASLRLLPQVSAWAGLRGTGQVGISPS

human MAdCAM protein = biological target: T4, human MAdCAM protein (human, UniProt Q13477 19-317); assay: Octet
T4 construct: used for Octet, SPR, ELISA and plate capture; construct not described; also called recombinant human MAdCAM; soluble monomeric human MAdCAM
T4 sequence (looked up): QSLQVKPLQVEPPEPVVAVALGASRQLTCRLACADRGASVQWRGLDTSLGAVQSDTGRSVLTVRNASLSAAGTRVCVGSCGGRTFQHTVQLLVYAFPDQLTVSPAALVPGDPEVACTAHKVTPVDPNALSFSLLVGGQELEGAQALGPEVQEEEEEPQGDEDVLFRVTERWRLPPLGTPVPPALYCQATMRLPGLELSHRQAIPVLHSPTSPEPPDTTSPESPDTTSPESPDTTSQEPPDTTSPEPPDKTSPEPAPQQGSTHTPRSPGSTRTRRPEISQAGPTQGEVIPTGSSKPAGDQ

- binding result [1]: no binding
- binding result (mouse MAdCAM protein): no binding
B1: MAdCAM antibody Clone ID 14 of Table 7 (IgG) (antibody, V domains shown)
VH: QVQLVQSGAEVKKPGSSVKVSCKASGYTFTNYYMHWVRQAPGQGLEWMGGIIPIVDGVKYAQKFQGRVTITADESTSTAYMELSSLRSEDTAVYYCAKGQFTGNYYYGMDYWGQGTLVTVSS
VL: DIQMTQSPSSLSASVGDRVTITCQANQDISNYLNWYQQKPGKAPKLLIYRASKLEAGVPSRFSGSGSGTDFTLTISSLQPEDFATYYCQQSSEIPYSFGQGTKVEIK
notes: IgG format

- binding result [1]: no binding
- binding result (mouse MAdCAM protein): no binding
B5: MAdCAM antibody Clone ID 74 of Table 7 (IgG) (antibody, V domains shown)
VH: QVQLVQSGAEVKKPGASVKVSCKASGYTFTGYYMHWVRQAPGQGLEWMGIINPSGGNTKYAQKFQGRVTMTRDTSTSTVYMELSSLRSEDTAVYYCTTADYYYYMDVWGKGTTVTVSS
VL: DIQMTQSPSSLSASVGDRVTITCRASQGISNYLAWYQQKPGKAPKLLIYAASSLQSGVPSRFSGSGSGTDFTLTISSLQPEDFATYYCQQYYSNADFGQGTKVEIK
notes: IgG format

- binding result [1]: no binding
- binding result (mouse MAdCAM protein): no binding
B8: MAdCAM antibody Clone ID 28 of Table 7 (IgG) (antibody, V domains shown)
VH: EVQLLESGGGLVQPGGSLRLSCAASGFTFSSYAMSWVRQAPGKGLEWVSYISSSSTYTNYADSVKGRFTISRDNSKNTLYLQMNSLRAEDTAVYYCARANSSSWYDWYFDLWGQGTLVTVSS
VL: not shown
notes: IgG format

- binding result [1]: no binding
- binding result (mouse MAdCAM protein): no binding
B9: MAdCAM antibody Clone ID 29 of Table 7 (IgG) (antibody, V domains shown)
VH: B8 VH with A33Q
VL: not shown
notes: IgG format

- binding result [1]: no binding
- binding result (mouse MAdCAM protein): no binding
B16: MAdCAM antibody Clone ID 65 of Table 7 (IgG) (antibody, V domains shown)
VH: QVQLVQSGAEVKKPGASVKVSCKASGYTFTSYDINWVRQAPGQGLEWMGWMNPNSGNTGYAQKFQGRVTMTRDTSTSTVYMELSSLRSEDTAVYYCAKDSDYSNLLWDYWGQGTLVTVSS
VL: DIQMTQSPSSLSASVGDRVTITCRASQDITNDLGWYQQKPGKAPKLLIYQASSLESGVPSRFSGSGSGTDFTLTISSLQPEDFATYYCQQSYTIPLTFGQGTKVEIK
notes: IgG format

More lines, now with the values behind:

B2: MAdCAM antibody Clone ID 22 of Table 7 (IgG) (antibody, V domains shown)
VH: EVQLLESGGGLVQPGGSLRLSCAASGFTFDDYAMHWVRQAPGKGLEWVSGISWNSGSIGYADSVKGRFTISRDNSKNTLYLQMNSLRAEDTAVYYCAKDIVAAGHYYYGMDVWGQGTTVTVSS
VL: B1 VL with N26S, R50D, K53N, A56T, S92Y, E93S, I94T, Y96L, S97T, Q100G
notes: IgG format
- binding result [2]: binds
- binding result [1]: no binding
- binding result (human MAdCAM protein): binds
- binding result (mouse MAdCAM protein): no binding

B3: MAdCAM antibody Clone ID 17 of Table 7 (IgG) (antibody, V domains shown)
VH: QVQLVQSGAEVKKPGSSVKVSCKASGYTFTDYHIHWVRQAPGQGLEWMGGIVPRSGSTTYAQKFQGRVTITADESTSTAYMELSSLRSEDTAVYYCAKDESSGWYYFDYWGQGTLVTVSS
VL: DIVMTQSPLSLPVTPGEPASISCRSSQSLLHSNGYNYLDWYLQKPGQSPQLLIYSAYNRASGVPDRFSGSGSGTDFTLKISRVEAEDVGVYYCMQALQTPLTFGQGTKVEIK
notes: IgG format
- binding result [2]: binds
- binding result [1]: no binding
- binding result (human MAdCAM protein): binds
- binding result (mouse MAdCAM protein): no binding

B4: MAdCAM antibody Clone ID 36 of Table 7 (IgG) (antibody, V domains shown)
VH: EVQLLESGGGLVQPGGSLRLSCAASGFTFDDYALHWVRQAPGKGLEWVSAISGDGRSTTYADSVKGRFTISRDNSKNTLYLQMNSLRAEDTAVYYCARDGTVNGATGWFDPWGQGTLVTVSS
VL: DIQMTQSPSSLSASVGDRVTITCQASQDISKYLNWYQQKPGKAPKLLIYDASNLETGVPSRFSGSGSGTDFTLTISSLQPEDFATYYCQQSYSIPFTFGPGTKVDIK
notes: IgG format
- binding result [2]: binds
- binding result [1]: binds
- binding result (human MAdCAM protein): binds

B6: MAdCAM antibody Clone ID 20 of Table 7 (IgG) (antibody, V domains shown)
VH: EVQLLESGGGLVQPGGSLRLSCAASGFTFSDSAMHWVRQAPGKGLEWVSAISGSGSTIYYADSVKGRFTISRDNSKNTLYLQMNSLRAEDTAVYYCVSDIAVAGHWYFDLWGRGTLVTVSS
VL: DIQMTQSPSSLSASVGDRVTITCRASQSISTFLNWYQQKPGKAPKLLIYAASRLEGGVPSRFSGSGSGTDFTLTISSLQPEDFATYYCQQANSFPLTFGPGTKVDIK
notes: IgG format
- binding result [2]: binds
- binding result [1]: no binding
- binding result (human MAdCAM protein): binds
- binding result (mouse MAdCAM protein): no binding

B7: MAdCAM antibody Clone ID 23 of Table 7 (IgG) (antibody, V domains shown)
VH: EVQLLESGGGLVQPGGSLRLSCAASGFTFDDYAMHWVRQAPGKGLEWVSYIDTSSSHLYYADSVKGRFTISRDNSKNTLYLQMNSLRAEDTAVYYCARDEAAAGYYGMDVWGQGTTVTVSS
VL: DIQMTQSPSSLSASVGDRVTITCQAGQDISNYLNWYQQKPGKAPKLLIYDASNLETGVPSRFSGSGSGTDFTLTISSLQPEDFATYYCQQTYSTPITFGQGTKLEIK
notes: IgG format
- binding result [2]: binds
- binding result [1]: no binding
- binding result (human MAdCAM protein): binds
- binding result (mouse MAdCAM protein): no binding

B10: MAdCAM antibody Clone ID 78 of Table 7 (IgG) (antibody, V domains shown)
VH: QVQLVQSGAEVKKPGSSVKVSCKASGGTFSSYAISWVRQAPGQGLEWMGWMEPHTGNTRYAQKFQGRVTITADESTSTAYMELSSLRSEDTAVYYCAKGGFSWFDPWGQGTLVTVSS
VL: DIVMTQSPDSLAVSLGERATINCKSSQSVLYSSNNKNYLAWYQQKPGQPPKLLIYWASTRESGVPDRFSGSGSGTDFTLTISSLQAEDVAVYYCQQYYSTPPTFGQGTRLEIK
notes: IgG format
- binding result [2]: binds
- binding result [1]: binds
- binding result (human MAdCAM protein): binds

B11: MAdCAM antibody Clone ID 46 of Table 7 (IgG) (antibody, V domains shown)
VH: EVQLLESGGGLVQPGGSLRLSCAASGFSFSSYTMNWVRQAPGKGLEWVSFITSSSRTIYYADSVKGRFTISRDNSKNTLYLQMNSLRAEDTAVYYCARDRRGDYGDSWYFDLWGRGTLVTVSS
VL: EIVMTQSPATLSVSPGERATLSCRASQSVRNYLAWYQQKPGQAPRLLIYGASTRATGIPARFSGSGSGTEFTLTISSLQSEDFAVYYCQQYGSSPLTFGGGTKVEIK
notes: IgG format
- binding result [2]: binds
- binding result [1]: no binding
- binding result (human MAdCAM protein): binds
- binding result (mouse MAdCAM protein): no binding

B12: MAdCAM antibody Clone ID 58 of Table 7 (IgG) (antibody, V domains shown)
VH: EVQLLESGGGLVQPGGSLRLSCAASGFSVSSNYMSWVRQAPGKGLEWVAGISYDGSSKPYADSVKGRFTISRDNSKNTLYLQMNSLRAEDTAVYYCARSRGIAARPLQHWGQGTLVTVSS
VL: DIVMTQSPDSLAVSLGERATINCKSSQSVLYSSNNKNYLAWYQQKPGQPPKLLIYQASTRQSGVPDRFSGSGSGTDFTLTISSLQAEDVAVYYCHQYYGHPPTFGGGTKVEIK
notes: IgG format
- binding result [2]: binds
- binding result [1]: no binding
- binding result (human MAdCAM protein): binds

B13: MAdCAM antibody Clone ID 6 of Table 7 (IgG) (antibody, V domains shown)
VH: EVQLLESGGGLVQPGGSLRLSCAASGFTFNNYAFHWVRQAPGKGLEWVSRINSYGTSTTYADSVKGRFTISRDNSKNTLYLQMNSLRAEDTAVYYCAREGPVAGYWYFDLWGQGTLVTVSS
VL: B16 VL with D28I, T30G, N31T, D32N, G34A, Q50G, E55Q, T93R, I94L, L96F
notes: IgG format
- binding result [2]: binds
- binding result [1]: no binding
- binding result (human MAdCAM protein): binds
- binding result (mouse MAdCAM protein): no binding

B14: MAdCAM antibody Clone ID 24 of Table 7 (IgG) (antibody, V domains shown)
VH: EVQLVESGGGLVKPGGSLRLSCAASGFTFSSYWMSWVRQAPGKGLEWVSRISSDGRITTYAAPVKGRFTISRDDSKNTLYLQMNSLKTEDTAVYYCARGTSYCTGGVCDIDYWGQGTLVTVSS
VL: B6 VL with S30G, T31R, F32N, A50S, R53N, E55Q, G56S, A91S, N92Y, F94I
notes: IgG format
- binding result [2]: binds
- binding result [1]: no binding
- binding result (mouse MAdCAM protein): no binding

B15: MAdCAM antibody Clone ID 30 of Table 7 (IgG) (antibody, V domains shown)
VH: EVQLLESGGGLVQPGGSLRLSCAASGFTFSSYAMHWVRQAPGKGLEWVSGISGSGGSAYYADSVKGRFTISRDNSKNTLYLQMNSLRAEDTAVYYCATSQAPVDYYYYGMDVWGQGTTVTVSS
VL: DIQMTQSPSSLSASVGDRVTITCRASQSISSWLAWYQQKPGKAPKLLIYAASNLQRGVPSRFSGSGSGTDFTLTISSLQPEDFATYYCQQSYSIPITFGQGTKVEIK
notes: IgG format
- binding result [2]: binds
- binding result [1]: binds
- binding result (human MAdCAM protein): binds
